Publication doi:10.1101/2021.10.22.465432 (bioRxiv, 2021)

Molecular target: T1, Drosha (mouse (endogenous in N2A), UniProt Q5HZJ0 1-1373)
T1 sequence: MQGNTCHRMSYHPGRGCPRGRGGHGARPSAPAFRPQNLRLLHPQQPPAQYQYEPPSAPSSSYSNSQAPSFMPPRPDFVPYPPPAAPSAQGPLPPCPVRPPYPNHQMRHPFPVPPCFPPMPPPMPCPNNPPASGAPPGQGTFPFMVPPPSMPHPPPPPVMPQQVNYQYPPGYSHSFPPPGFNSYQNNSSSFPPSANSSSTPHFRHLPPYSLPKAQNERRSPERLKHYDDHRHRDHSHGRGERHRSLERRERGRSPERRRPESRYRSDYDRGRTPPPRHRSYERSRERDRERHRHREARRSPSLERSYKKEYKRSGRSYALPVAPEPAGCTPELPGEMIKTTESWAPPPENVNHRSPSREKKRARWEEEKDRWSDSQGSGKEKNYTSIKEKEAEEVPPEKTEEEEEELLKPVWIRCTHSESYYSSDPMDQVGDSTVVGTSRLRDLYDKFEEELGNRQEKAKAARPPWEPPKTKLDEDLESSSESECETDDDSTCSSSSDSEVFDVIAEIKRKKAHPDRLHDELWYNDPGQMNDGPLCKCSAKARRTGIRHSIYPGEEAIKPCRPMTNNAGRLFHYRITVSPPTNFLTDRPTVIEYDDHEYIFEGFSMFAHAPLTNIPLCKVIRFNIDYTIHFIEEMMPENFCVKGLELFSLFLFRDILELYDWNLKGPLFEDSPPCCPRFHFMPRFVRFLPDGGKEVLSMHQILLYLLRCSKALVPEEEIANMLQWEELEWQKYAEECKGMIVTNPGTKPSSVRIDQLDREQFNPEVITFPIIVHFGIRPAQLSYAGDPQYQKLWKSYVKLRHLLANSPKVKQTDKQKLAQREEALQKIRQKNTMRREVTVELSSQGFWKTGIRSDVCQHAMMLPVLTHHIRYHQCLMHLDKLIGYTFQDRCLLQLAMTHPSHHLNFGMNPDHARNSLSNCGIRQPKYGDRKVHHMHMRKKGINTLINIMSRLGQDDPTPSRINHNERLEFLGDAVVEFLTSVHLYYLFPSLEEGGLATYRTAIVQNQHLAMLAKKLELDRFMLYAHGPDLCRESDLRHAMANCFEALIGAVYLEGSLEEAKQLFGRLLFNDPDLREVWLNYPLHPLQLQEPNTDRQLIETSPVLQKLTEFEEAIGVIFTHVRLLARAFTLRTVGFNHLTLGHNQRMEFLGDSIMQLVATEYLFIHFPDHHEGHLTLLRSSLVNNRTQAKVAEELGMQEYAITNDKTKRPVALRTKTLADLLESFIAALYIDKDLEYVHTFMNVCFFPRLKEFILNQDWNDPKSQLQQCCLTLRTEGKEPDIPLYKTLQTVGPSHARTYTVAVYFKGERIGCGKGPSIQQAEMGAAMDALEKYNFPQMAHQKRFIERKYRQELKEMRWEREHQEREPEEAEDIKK
Assay: co-IP

B1: Safb1-ΔRE-HA (natural protein)
chain: MAETLSGLGDASAAGAAAVSSAASETGTRRLSDLRVIDLRAELKKRNLDSSGNKSVLMERLKKAIEDEGGNPDEIEVTSECNKKMPKRPSKGRKPEDEGVEDNGLEENSGDGQEDVETSLENLQDMDMMDISVLDEADIDNGSVADCVEEEEEATLPEGLADSTELVEGDLKGLPEQLQEHAIDDKDTVNNVDTSSSDFTMLQEMEEASLEPENEKILDILGETCKSEPVKEEGSELEQPFAQATSSVGPDRKLAEEEDLFESCGHPEEEEEEEEEDQEEEQEEEGDLALASSSKSESPSTRCQWSEADAPLAVVKREPADAPGGGTGMDREPVGLEEPVEQSSTAAQLPEATSQELVRAPTAALSPEPQDSKEDVKKFAFDACNDVPAPPKESSASEGADQKMSSVEEDSDTKRLSREEKGRSSCGRNFWVSGLSSTTRATDLKNLFSRYGKVVGAKVVTNARSPGARCYGFVTMSTAEEATKCISHLHKTELHGKMISVEKAKSEPTGKRVPDRRDGDSKKEKASTSDRSANLKREEKGERKDDAKKTDHREREELRRQQELRYEQERRPAVRRPYEVDGRRDDAYWPEAKRAALDDRYHSDFSRQDRFHDFDHRDRGRYPNHSVDRREGSRSMMGDREGQHYPERHGGPERHGRDSRDGWGYGSNKRLSEGRGLPPPPRRDWGEHGRRLEDDRAWQGTADGGMMERDHKRWQGGERSMSGHSGPGHMMNRGGMSGRGSFAPGGASRGHVIPRGGMQAGFGGQSRGSRPSDARFTRRY
fold reduction in binding against Safb1 wild type: 5.7 fold
